Data taken from the DeepSol protein solubility set.

Assay: soluble on expression in E. coli; label from the status in PepcDB or PDB records

Soluble on expression in E. coli, not soluble:
MAGSTLTVKDLHVSIDGKEILKGVNLEVKGGEIHAIMGPNGTGKSTLSSAIMGHPKYEVTEGSIIIDGEDVLEMEVDERAQAGLFLAMQYPSEISGVTNADFLRSAINARREEGDEISLMKFIRKLDKNMEFLEMDPEMAQRYLNEGFSGGEKKRNEILQLMMIEPKIAILDEIDSGLDIDALKVVSKGINEMRGEEFGCLMITHYQRLLNYITPDFVHVMMNGRIVKSGGPELAQRLEAEGYDWIKKELGIEDETTEQEA
MGSDKIHHHHHHMKVIKRLERYLSAAFSLGRIKSMSKDAQREIAELRLELGTLSQELKHTRQETERMWAWMRRHEALADDLVSVSRREAEVLKRTGQSDTALLLRMFSDLSRRIDGGESGRPDEKAPSSNGLPSSTGFEMFKDAFYHRFENQWRGAPEEISQRLKVYLPDVEAAWARAENKPIFDIGCGRGEWLGLLRQHGMEGIGFDTNAVQIKEGQAAGLDLRLGDALEALAQAEDNSLSVISAHHLIEHLPFDSVAWLTREAGRVLAPGGLLLFETPNTRNVLVGATTFYTDPTHLKPMPEQVMGVLLETAGFEPVDIRHINPHERLGEFLDRPGFDNELAQLMFGPQDLAILGIKSKDK
MDNGHIEETNNVEIDPATGGAVMSFSYASDFPTLPDAAPASAPTAKQTHVWSRPTLSKSEVNITFRLASDERSNKVKSFGSTSEESKKAQAIATATKTRIELSESKDGELTVVVKGERAKAEEARARIIRDLQTQASREIDIPKDHHGRLIGKEGALLRNLEAETNCRIQIPNRDGPSSKITITGPREGIQRAAAHILAVSEREAKLATEHIVCPKNLVAFVRGPKNETYDRLTQNNGVKINIPPPHVTNEVISVTGEKDGVLRVAAEIRQIIESKKNVSSIQVAVARTQHRYIVGQSRSGIHDVLQKTGCVVEVPAEDSGSDQVTLIGNAQDLAKALALVIERASSVVTQSISAPNWLHKHLIGPKGATLTALVPNRNNVQIEFDNSNQIFLEGSPEEVKLAFEPLSKEVARLQMELAIEKVKVHPTLHRHVIGRGGSLISKIKDQHGVQITIPNEETNSDEIVVEGKKEGVKKAVTEIRAIVTKIENEKSRDIIIPQRLHKLIIGSKGSGVQVIRDSHPNVSVVFPDAKSKSDVVNIRGDKTEVDAVYKKLTALSKEYAENNYQQTVAIFKEFLKHIVGKGGASIRKLRDETETRIDLPESGSDDGKITVTGKQANVEKAVAQLNKIQEELANVAEESIEIPQKVQSRFFGNGRRLISDIEDECGGVHIRFPSEKSESTKVTIRGPAGDVAKAVGLLSALAKDKEENYVEDTVKAKPEFHRFLIGKGGSKIAKLRDTLNVRVMFPKEGDAEKETIHLLGKKEDVPKAKAALEDAIKQLSETVDIKITVDPKYYKNFLARGAALVKEIQEQNGGVVISFPKNGTDSSEVSIRGSKQCVEAAKNRIEDVVEDYEKQITDNVTIPAQFHRGLLAGRGAKIHELQSKYNVSIRFPNNREEGSEGSDQVTVSGRDTKVEEAKEALLAMVPISKVIQLPVDMHRSIIGRGGETVRKLMQDYDVNISIPKDNSSEDITVTGQTENVDQALEALRGKLGEYEAQAEDRKLKQWSMSINVPTDYHQKIIGQRGATITALKEKYGVIINVPREDGNETITIQGYEEKANECAAAIEEMISELRSMFTQEISLDARYHPRLIGQRGKNLKKVMEDYRVEIRLPRQGAEDPNLVVVAGKDENDVYDCIDHLRAEEEEFLLDNVERTQYMSPRQQESNNTRHHQQPTSVQMKGAPWQLDLGSSEQFPDMGPAAGSSAAVGGAGAWGSSRRW
MGHHHHHHSHMRSTGSAPSCSGESARAHRRRAGAMSIRSSRTKHSTAQKGAHRRRVSLAGFFNLIYKRQDLGLDFLREMSEPLCTSRPVLLPLNLKNIAPGRCISLTPFGHTDNLGFQCETCTDPNLNKSIPPKLEDPAFSKNELCSVTLTFYQQAEQVIQHKQFYLSLLNLSMDAVRNSLTQPGLLYCYLVTKAFMLEGFPIFFEETNGMLGLYLVFRRDLLHLHESYLRLLIDNLGNYDISVDSVGRSYIIKLCPVGNVSRIPTIPADNVCLAVNNLDYGDDVKASWIECFNIVSRLSQQ
TIDAQLQKRAEQAFGDQAGAAVVMEVNTGEILAFVSNPEFDPALFAGRMPPEIWKQYLEDKRHPLENKALKGQYPPGSTYKIITALAGLEEGIIDDHTTVTCKGSYALGNTTFRCWDKKGHGAVDLRRALRESCDVYFYVLGEKLGIDRLSAYAQKFALGAPMGVGLDNEKGGLIPTSAWKLQRHKTRWFQGDTLSAAIGQGYVLMTPIQLASMTAAIATDGIVYRPRLVKRIIDRDGKVLREFQPEIITRADISPRSFKSVKEGLWAVVNESGGTGGMSRIPDVRVAGKTGTSQVVKLRDTRGFIPYQYRDHALFVAYAPYEHPEVAVAVVIEHGEHGGSAAAPIAGSILRAYFEGKGVIRR
MAHHHHHHMSMHSVEGALCSCSMCKLTCHTASVYANQRRASKHVMLARPSPFYAETGGLPPEVPQLAPPPERLVVCPVFEEYGFCPFGRICFLPHSGEKTPLVERKGTSREELERLREKARLQEEEELWSCDVCGFDGIDENTQGRVGEMYYYRNCPRCSLMCYFPHIAYLVDAIFDASGDDYQIFKDEIDRCRRELPDILKVPLTYEAHRIASTAFAWSLVSPKHVKDALDAAYRALPEMSCIVSVGSGVGYVEHIFNRVANGVPAAPRDPDPALGISSFEGVHACFYPKKKLPIYAFDEVALNCPYSVCVSLGGPVALLSLQCPTSVLLLSWPPFGSPKEEQSSMAFEALEYFTQAGGKVVIYIGDVASTGDWRFHELLYTHYKLVKDYTVRREVRRWSPQDMGLVYAGNDTIGVYKLRSERLPSPQWQWDGRSS
MRSQRELTSPMTPLENPGDISDKPRLTTQKLSLGYGQQLIINKLSLSIKNGAFSVIIGPNGCGKSTLLRALSRSLLPQNGSIRLDQQDIQHYKAKVFARQLSLLSQGASISETLTVFDLVSRGRYAHQSFFHQWSTEDERIVKAAISAVNLESLVQQRVSELSGGQRQRAWFAMTLAQHTPIVLLDEPTTYLDIAHQIEMLDLCQELQQQGKTLVLVLHDINQALRYATHLIMLKEGQIYAEGLPESIVTEDSIAAVFGLRCRIITDPESGKPLVIPRRQSR

Soluble on expression in E. coli, soluble:
PDATSKKVVPLGVEIYEINGPFFFGVADRLKGVLDVIEETPKVFILRMRRVPVIDATGMHALWEFQESCEKRGTILLLSGVSDRLYGALNRFGFIEALGEERVFDHIDKALAYAKLLVETAEERGRES
AIADEEEEISVVQDMAYDYSGKRLATVSIDREICIWNKKDDWQRTYQWKAHEGPLFGVSWAHPCFGNILATGSYDKRVIIWEEPEASSSYSSSSMDKSTKGWTALAHLVDARDEVRQVQFAPPHLGLLLASGSADGYVRIYTCIDEADLHQWPLLTELDMDSPVVGMSWNPSVDSIPLIVVASHKDCRVWSMDNDTRRWTDWHLFRTSESDTADLSAVAWAPHVGRSFERIALGCEDGSILLFQFPRIQQGNKTNGHEMQPICRLNHGNERIVRLQWNMVGSILASSASDRMVRLWKALPQDGTRWNCFDVVHLNE
SESQSEEIDCNDKDLFKAVDAALKKYNSQNQSNNQFVLYRITEATKTVGSDTFYSFKYEIKEGDCPVQSGKTWQDCEYKDAAKAATGECTATVGKRSSTKFSVATQTCQITPAEGPVVTAQYDCLGCVHPISTQSPDLEPILRHG
MSPKSLLITGANRGIGLGLLKQFLKHKDIQIIIATCRDPSKAEELSNLKDSRLHILPLDIDCDESISKLYAEVEKLVGEDGLTVLLNNAGILLPYDVEGEKNRKTLIRQLETNSVSTALITQEFLPLLKKAAAKNGGDGYSINRAAIVNISSTAASVEKIDGTFNGPLVAYRMSKSALNSFAKSCSIDLAKYHILVTSFCPGWVKTGMGGANAMLEIEDATKTLSDNILTLGNAHHGAYLNADLTVIPN
MGSSHHHHHHSSGLVPRGSHMDFEEDYDAEFDDNQEGQLETPFPSVAGADDGDNDNDDSVAENMKKKQKREAVVDDGSENAFGIPEFTRKDKTLEEILEMMDSTPPIIPDAVIDYYLTKNGFNVADVRVKRLLALATQKFVSDIAKDAYEYSRIRSSVAVSNANNSQARARQLLQGQQQPGVQQISQQQHQQNEKTTASKVVLTVNDLSSAVAEYGLNIGRPDFYR
VSPKTYKDADFYVAPTQQDVNYDLVDDFGANGNDTSDDSNALQRAINAISRKPNGGTLLIPNGTYHFLGIQMKSNVHIRVESDVIIKPTWNGDGKNHRLFEVGVNNIVRNFSFQGLGNGFLVDFKDSRDKNLAVFKLGDVRNYKISNFTIDDNKTIFASILVDVTERNGRLHWSRNGIIERIKQNNALFGYGLIQTYGADNILFRNLHSEGGIALRMETDNLLMKNYKQGGIRNIFADNIRCSKGLAAVMFGPHFMKNGDVQVTNVSSVSCGSAVRSDSGFVELFSPTDEVHTRQSWKQAVESKLGRGCAQTPYARGNGGTRWAARVTQKDACLDKAKLEYGIEPGSFGTVKVFDVTARFGYNADLKQDQLDYFSTSNPMCKRVCLPTKEQWSKQGQIYIGPSLAAVIDTTPETSKYDYDVKTFNVKRINFPVNSHKTIDTNTESSRVCNYYGMSECSSSRWER
GSITQPTAINVIFPDPALANAIKIAAGKSNVTDTVTQADLDGITTLSAFGTGVTTIEGVQYLNNLIGLELKDNQITDLAPLKNLTKITELELSGNPLKNVSAIAGLQSIKTLDLTSTQITDVTPLAGLSNLQVLYLDLNQITNISPLAGLTNLQYLSIGNAQVSDLTPLANLSKLTTLKADDNKISDISPLASLPNLIEVHLKNNQISDVSPLANTSNLFIVTLTNQTITNQPVFYNNNLVVPNVVKGPSGAPIAPATISDNGTYASPNLTWNLTSFINNVSYTFNQSVTFKNTTVPFSGTVTQPLTE
GPGSMSLWGGFSNPTSYSDSGLEKRLEFDFAAAVDVQTFAVEELEDVLAAAGQKLQHHFSAEGLLSLEMTQCIIILTPCKLVVTSASEVMLHQVITPTIALLTSKGVRVEWASYLRKNTTSPWCAESEMSDIMAQEYAELKAAFPAGKSFLTGPVDGHHCFNFVYDNVERIAGRKEEDVQVNVFLNDVAAGLEEVNKTTQRFHALQSGEYEVMRTFAGVPCISFETNAKAAVASPTRVQKLLDTFQPTHFTVAALQDRDADESALRCNFNAFTPYTLQNRTVNLFGEGYAFHQLLFARSAD
MRCMTLPAYDIAILGAGPVGRVLALLLARLTPQPQRIALLQGGAGLPPTPAGTLGPAADPRVLALNHGSRVLLESLRAWPAHAAEIRHIHVSQRGRLGRTVIDREDFDVPQLGNVVAYAALHAQLEQAVQDCGVTVLSGPPARVDGQDGEGLTVRQGDAALHCRLAVQCDGAGGSDVRRDYAQHAVLTSAHATLPRSGWAWERFTNEGPLAMLPHPQTPEAYSVVWCCAPPRARRLAGLDDEAFSRELTEAFGTRLGRLRSAAPRHVFPLELKARHAQAHGRLATIGNAAQTLHPVAGQGLNLGLRDAAQLAHALPDWLAAPQADPSPLLATFARARLADRWVTAGLTDLMPRIFATGLAPVEHACGLALLGLDIAAPLRAPLARHLLQGLRVLEHHHHHH
MASGRARCTRKLRNWVVEQVESGQFPGVCWDDTAKTMFRIPWKHAGKQDFREDQDAAFFKAWAIFKGKYKEGDTGGPAVWKTRLRCALNKSSEFKEVPERGRMDVAEPYKVYQLLPPGIVSGQPGTQKVPSKRQHSSVSSERKEEEDAMQNCTLSPSVLQDSLNNEEEGASGGAVHSDIGSSSSSSSPEPQEVTDTTEAPFQGDQRSLEFLLPPEPDYSLLLTFIYNGRVVGEAQVQSLDCRLVAEPSGSESSMEQVLFPKPGPLEPTQRLLSQLERGILVASNPRGLFVQRLCPIPISWNAPQAPPGPGPHLLPSNECVELFRTAYFCRDLVRYFQGLGPPPKFQVTLNFWEESHGSSHTPQNLITVKMEQAFARYLLEQTPEQQAAILSLV
MWKAVMNAWNGTESQSKNVSNIQSYSFEDMKRIVGKHDPNVVLVDVREPSEYSIVHIPASINVPYRSHPDAFALDPLEFEKQIGIPKPDSAKELIFYCASGKRGGEAQKVASSHGYSNTSLYPGSMNDWVSHGGDKLDL
